The chains are these.
B1: HZI 2-05 (Anlec in TBS; lectin batch isolated from bromelain) (other)
chain: MSGLVKLGLWGGNEGTLQDIDGHPTRLTKIVIRSAHAIDALQFDYVEDGKTFAAGQWGGNGGKSDTIEFQPGEYLIAIKGTTGALGAVTNLVRSLTFISNMRTYGPFGLEHGTPFSVPVASGRIVAFYGRFGSLVDAFGIYLMPY
B2: HZI 2-10 (Anlec in TBS; lectin batch isolated from bromelain, protease inhibited with MMTS) (other)
chain: MSGLVKLGLWGGNEGTLQDIDGHPTRLTKIVIRSAHAIDALQFDYVEDGKTFAAGQWGGNGGKSDTIEFQPGEYLIAIKGTTGALGAVTNLVRSLTFISNMRTYGPFGLEHGTPFSVPVASGRIVAFYGRFGSLVDAFGIYLMPY
B3: HZI 2-06 (Anlec in dist. water; lectin batch isolated from bromelain) (other)
chain: MSGLVKLGLWGGNEGTLQDIDGHPTRLTKIVIRSAHAIDALQFDYVEDGKTFAAGQWGGNGGKSDTIEFQPGEYLIAIKGTTGALGAVTNLVRSLTFISNMRTYGPFGLEHGTPFSVPVASGRIVAFYGRFGSLVDAFGIYLMPY
B4: Acm-JRL 2 (Anlec in TBS, Batch 2) (other)
chain: MSGLVKLGLWGGNEGTLQDIDGHPTRLTKIVIRSAHAIDALQFDYVEDGKTFAAGQWGGNGGKSDTIEFQPGEYLIAIKGTTGALGAVTNLVRSLTFISNMRTYGPFGLEHGTPFSVPVASGRIVAFYGRFGSLVDAFGIYLMPY

A word on the koff: it is a measure of how fast the partners let go of each other. By kon is commonly meant a measure of how fast the partners come together.

The assay addresses SARS-CoV-2 spike protein, extracellular domain (1-1213), recombinant from HEK293 cells (SARS-CoV-2, UniProt P0DTC2 14-1213).
With B1, the koff is 0.005 s⁻¹ and the kon came out at 133 M⁻¹ s⁻¹. With B2, the koff amounted to 0.003 s⁻¹ and the kon amounted to 286 M⁻¹ s⁻¹. The matching figures for B3: 0.008 s⁻¹ and 359 M⁻¹ s⁻¹. Regarding B4, the koff is 0.003 s⁻¹.

(Values after patent US20240216484A1 (URSAPHARM ARZNEIMITTEL, published 2024).)
